# Data published in paper PMC11201974, “Structural Insights into the Rrp4 Subunit from the Crystal Structure of the Thermoplasma acidophilum Exosome” (Biomolecules, 2024).
# T1: TaciRrp41:42 complex (Thermoplasma acidophilum exosome core, Rrp41 with truncated Rrp42) (Thermoplasma acidophilum, UniProt Q9HIP2 1-248; Q9HIP1 20-240)
# T1 construct: Exosome complex component Rrp41 of Thermoplasma acidophilum; as the chain of m1; Exosome complex component Rrp42 of Thermoplasma acidophilum, truncated core domain of residues 20-240; as the chain of m2; The complex was purified on Ni-NTA and labelled with the His-tag labelling kit (RED-tris-NTA) for MST; the oligomeric state in the MST sample was not measured; also called TaciRrp41/cd-TaciRrp42; …
# T1 sequence 1: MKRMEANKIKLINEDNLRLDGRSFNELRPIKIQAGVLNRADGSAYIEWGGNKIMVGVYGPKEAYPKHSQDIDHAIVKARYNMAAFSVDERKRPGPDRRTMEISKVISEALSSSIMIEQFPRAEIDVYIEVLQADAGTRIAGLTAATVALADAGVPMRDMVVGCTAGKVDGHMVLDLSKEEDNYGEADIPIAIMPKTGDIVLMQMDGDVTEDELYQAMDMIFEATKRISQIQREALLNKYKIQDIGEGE
# T1 sequence 2: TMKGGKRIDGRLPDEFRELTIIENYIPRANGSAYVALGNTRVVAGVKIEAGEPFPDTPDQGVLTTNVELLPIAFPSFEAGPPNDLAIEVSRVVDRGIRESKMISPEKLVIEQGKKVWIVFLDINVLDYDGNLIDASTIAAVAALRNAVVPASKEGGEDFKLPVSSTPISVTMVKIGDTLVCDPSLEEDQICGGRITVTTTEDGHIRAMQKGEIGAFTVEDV
# T2: Thermoplasma acidophilum exosome subunit Rrp41 (TaciRrp41) (Thermoplasma acidophilum, UniProt Q9HIP2 1-248)
# T2 construct: Exosome complex component Rrp41 of Thermoplasma acidophilum; Single subunit (pET22b) used as ligand in MST; in the crystals the chain came from the pETDuet-1 co-expression with TaciRrp42; source: E. coli BL21 (DE3), from pET22b alone or from pETDuet-1 co-expressed with TaciRrp42; purified (Ni-NTA, Superdex 200)
# T2 sequence: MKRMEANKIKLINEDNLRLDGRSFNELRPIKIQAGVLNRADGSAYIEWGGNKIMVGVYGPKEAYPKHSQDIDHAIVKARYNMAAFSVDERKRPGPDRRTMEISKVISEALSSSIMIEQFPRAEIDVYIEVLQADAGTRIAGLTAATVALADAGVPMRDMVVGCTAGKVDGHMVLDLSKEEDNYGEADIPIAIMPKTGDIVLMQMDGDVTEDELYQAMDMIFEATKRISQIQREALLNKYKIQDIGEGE
# B1: Thermoplasma acidophilum exosome subunit Rrp4 (TaciRrp4) (natural protein, UniProt Q9HIP3 1-236, looked up)
# chain: MYQLGDVKKIVLPGDPIEVQGKMRNGVYRGQDNRYYSEYFGTLQVNDQFVDVVPFSGQYIPRKGDKVIGKVIEVGPSTWTVDINSPYFAMLHMNDTPWRMSSGDLKRYLNAGDYIYAKIMSVNEIKESWLTLKEPGLKKLEGGHMVLIHASRVPRVIGKGGGMVNMVKELTATRIIIGQNGLIWIDGPIEGVTMAIAAIEMIEREAHTEGLTARVESFLKELKGEKDGSQQNKADQ
# notes: Exosome complex component Rrp4 of Thermoplasma acidophilum (N-terminal domain, S1 domain, KH domain); also called TaciRrp4-capping protein; source: E. coli Rosetta, from pET22b; purified (Ni-NTA, Superdex 200)
# Columns and labels:
# Assay in all cases: MST; target (TaciRrp42 or TaciRrp41:42) labelled by RED-tris-NTA His-tag kit, 50 nM; ligand in sixteen serial dilutions (TaciRrp41 550 μM to 16.6 nM; TaciRrp4 200 μM to 6.1 nM); 30 min incubation; LED power and MST power 40%; triplicate
# Details in all cases: both partners purified
# [1] = biological target: T1, TaciRrp41:42 complex (Thermoplasma …)
# [2] = biological target: T2, Thermoplasma acidophilum exosome …
# [3] = biological target: B1
Kd [1],Kd [2],Kd [3],Binder
200 µM,–,–,B1
–,169 µM,4.82 µM,"Thermoplasma acidophilum exosome subunit Rrp42, truncated core domain, residues 20-240 (TaciRrp42) (domain or fragment, UniProt Q9HIP1 20-240, looked up, RED-tris-NTA fluorescent dye on the His tag (in MST), Exosome complex component Rrp42 of Thermoplasma acidophilum, truncated Rrp42 corresponding to the core domain composed of residues 20-240; Single subunit (pET28a) was the labelled target in MST; in the crystals the chain came from the pETDuet-1 co-expression; also called cd-TaciRrp42; source: E. coli BL21 (DE3), from pET28a alone or from pETDuet-1 co-expressed with TaciRrp41; purified (Ni-NTA, …)) TMKGGKRIDGRLPDEFRELTIIENYIPRANGSAYVALGNTRVVAGVKIEAGEPFPDTPDQGVLTTNVELLPIAFPSFEAGPPNDLAIEVSRVVDRGIRESKMISPEKLVIEQGKKVWIVFLDINVLDYDGNLIDASTIAAVAALRNAVVPASKEGGEDFKLPVSSTPISVTMVKIGDTLVCDPSLEEDQICGGRITVTTTEDGHIRAMQKGEIGAFTVEDV"
